Data reported in the Human Domainome abundance scans (Beltran et al. 2025).
± gives the uncertainty stated by the source.

B1: Ankyrin-1, residues 1405 to 1484; numbered along this chain, P16157 (parent)
chain: MKMAVISEHLGLSWAELARELQFSVEDINRIRVENPNSLLEQSVALLNLWVIREGQNANMENLYTALQSIDRGEIVNMLE

Variants of: B1
Assay: abundance fitness (aPCA) (normalised: wild type 0, dead -1); higher = more abundant; growth selection in yeast, the domain comes from the species named
Settings: Homo sapiens

Row | Variant | abundance fitness
1 | R30C | -0.022 ± 0.12
2 | R30Q | -0.049 ± 0.072
3 | N35T | -0.3 ± 0.12
4 | N35E | 0.051 ± 0.39
5 | N35M | -0.317 ± 0.17
6 | N35S | -0.017 ± 0.12
7 | N35Q | -0.247 ± 0.16
8 | H9D | -0.826 ± 0.3
9 | H9P | -0.666 ± 0.18
10 | H9M | -0.302 ± 0.12
11 | H9W | -0.251 ± 0.096
12 | H9N | -0.019 ± 0.18
13 | H9S | -0.868 ± 0.39
14 | D71V | -0.83 ± 0.12
15 | D71P | -0.437 ± 0.11
16 | D71L | -0.811 ± 0.095
17 | D71S | -0.213 ± 0.07
18 | R19I | -0.489 ± 0.17
19 | R19D | -0.296 ± 0.11
20 | R19A | -0.047 ± 0.06
21 | T65R | -0.04 ± 0.044
22 | T65M | -0.15 ± 0.076
23 | T65A | -0.029 ± 0.052
24 | M60R | -0.704 ± 0.15

Row | Variant | abundance fitness
25 | M60C | -0.564 ± 0.23
26 | L79H | -0.199 ± 0.15
27 | L79Q | -0.115 ± 0.11
28 | L79G | -0.379 ± 0.059
29 | L79A | 0.002 ± 0.064
30 | L79F | -0.331 ± 0.14
31 | K2H | -0.271 ± 0.17
32 | K2A | -0.168 ± 0.062
33 | K2G | -0.147 ± 0.048
34 | K2M | -0.132 ± 0.14
35 | L17E | -0.204 ± 0.16
36 | L17Y | -0.462 ± 0.11
37 | L17N | -0.776 ± 0.32
38 | L17M | -0.25 ± 0.12
39 | A18L | -0.535 ± 0.078
40 | A18F | -0.872 ± 0.28
41 | A18N | -0.627 ± 0.29
42 | A18W | -0.9 ± 0.19
43 | A18C | -1.05 ± 0.29
44 | S24W | -0.925 ± 0.25
45 | S24G | -0.23 ± 0.054
46 | S24C | -0.39 ± 0.17
47 | F23H | -0.829 ± 0.36
48 | F23L | -0.443 ± 0.061

Row | Variant | abundance fitness
49 | F23T | -0.908 ± 0.31
50 | F23W | -0.964 ± 0.17
51 | F23M | -0.693 ± 0.14
52 | F23N | -1.02 ± 0.32
53 | M78C | 0.065 ± 0.085
54 | M78I | 0.041 ± 0.12
55 | M78Q | -0.061 ± 0.098
56 | M78H | -0.158 ± 0.15
57 | M78S | -0.121 ± 0.066
58 | I31A | -0.855 ± 0.15
59 | I31F | -0.793 ± 0.44
60 | I31C | -0.872 ± 0.2
61 | I31Q | -0.712 ± 0.11
62 | I31Y | -0.448 ± 0.41
63 | I31H | -1.07 ± 0.28
64 | G73S | -0.192 ± 0.04
65 | G73W | -0.29 ± 0.05
66 | G73M | -0.396 ± 0.085
67 | G73V | -0.172 ± 0.038
68 | G73Q | -0.141 ± 0.066
69 | G73T | -0.306 ± 0.054
70 | Y64H | -0.312 ± 0.17
71 | Y64W | -0.531 ± 0.084
72 | Y64K | -0.473 ± 0.2

Row | Variant | abundance fitness
73 | Y64C | -0.24 ± 0.084
74 | Y64N | 0.087 ± 0.2
75 | Q22R | -0.093 ± 0.051
76 | Q22Y | -0.187 ± 0.15
77 | Q22G | -0.08 ± 0.05
78 | Q22D | -0.218 ± 0.11
79 | Q22K | 0.011 ± 0.08
80 | Q22H | -0.413 ± 0.19
81 | Q22V | -0.494 ± 0.079
82 | Q22I | -0.276 ± 0.15
83 | I70F | -0.693 ± 0.2
84 | I70D | -0.881 ± 0.26
85 | I70V | -0.193 ± 0.054
86 | R32K | -0.3 ± 0.12
87 | R32P | -0.831 ± 0.23
88 | R32W | -0.31 ± 0.45
89 | R32H | -0.294 ± 0.12
90 | R32N | -0.369 ± 0.17
91 | R32M | -0.35 ± 0.13
92 | L21C | -0.727 ± 0.33
93 | L21M | 0.048 ± 0.12
94 | M3H | -0.233 ± 0.26
95 | M3G | -0.533 ± 0.073
96 | M3F | 0.105 ± 0.097

Row | Variant | abundance fitness
97 | M3P | -0.474 ± 0.076
98 | M3Y | -0.708 ± 0.18
99 | V25H | 0.159 ± 0.085
100 | V25Y | 0.143 ± 0.097
101 | V25G | -0.119 ± 0.038
102 | V25S | 0.002 ± 0.054
103 | V25I | -0.143 ± 0.21
104 | V25N | 0.114 ± 0.14
105 | V44K | 0.327 ± 0.12
106 | V44N | 0.296 ± 0.084
107 | V44E | -0.058 ± 0.12
108 | V44Y | 0.03 ± 0.09
109 | V44S | 0.154 ± 0.045
110 | V44P | -0.911 ± 0.25
111 | E20N | -0.087 ± 0.14
112 | E20S | -0.145 ± 0.049
113 | E20Y | -0.286 ± 0.12
114 | E26R | -0.104 ± 0.051
115 | E26G | -0.127 ± 0.039
116 | E41Y | -0.28 ± 0.096
117 | E41D | 0.007 ± 0.12
118 | E41K | 0.117 ± 0.094
119 | E41N | 0.162 ± 0.13
120 | N59Q | -0.031 ± 0.11

Row | Variant | abundance fitness
121 | N59S | 0.059 ± 0.062
122 | N59C | -0.222 ± 0.12
123 | N59V | -0.078 ± 0.046
124 | N59W | -0.371 ± 0.056
125 | N59P | -0.253 ± 0.12
126 | N59F | -0.388 ± 0.17
127 | S13M | -0.441 ± 0.2
128 | S13N | -0.404 ± 0.18
129 | E16L | -0.162 ± 0.054
130 | E16V | -0.037 ± 0.05
131 | E16A | -0.041 ± 0.059
132 | E16R | -0.085 ± 0.056
133 | E16Q | -0.081 ± 0.11
134 | E16N | 0.161 ± 0.26
135 | L40K | 0.182 ± 0.06
136 | L40H | -0.136 ± 0.11
137 | L40P | -0.428 ± 0.075
138 | L40I | 0.061 ± 0.14
139 | L40N | -0.372 ± 0.11
140 | L40E | -0.032 ± 0.099
141 | L40F | 0.015 ± 0.067
142 | L63R | -0.95 ± 0.18
143 | L63W | -0.693 ± 0.22
144 | V5A | -0.231 ± 0.06

Row | Variant | abundance fitness
145 | V5G | -0.592 ± 0.078
146 | V5H | -0.216 ± 0.1
147 | V33T | 0.138 ± 0.082
148 | V33P | -0.764 ± 0.24
149 | V33G | -0.041 ± 0.04
150 | V33I | -0.018 ± 0.13
151 | L67C | -0.743 ± 0.28
152 | L67P | -0.858 ± 0.26
153 | L67T | -0.965 ± 0.29
154 | L67V | -0.771 ± 0.11
155 | I75P | -0.546 ± 0.14
156 | I75C | -0.734 ± 0.23
157 | I75G | -0.509 ± 0.073
158 | I75Y | -0.692 ± 0.36
159 | I75S | -0.457 ± 0.1
160 | I75M | -0.256 ± 0.17
161 | I75D | -0.54 ± 0.39
162 | R53D | -0.613 ± 0.15
163 | R53P | -0.983 ± 0.21
164 | R53F | -0.927 ± 0.22
165 | R53T | -0.682 ± 0.18
166 | R53Q | -0.483 ± 0.11
167 | R53N | -0.31 ± 0.26
